Patent publication US20100291682, “SYSTEM FOR TRANSPOSING HYPERACTIVE RECOMBINANT DERIVATIVES OF MOS-1 TRANSPOSON” (published 2010)

How the values were obtained:
Assay in all cases: cell_activity; 3T40 transposition in E. coli T5 vs 3T3/WT
Conditions in all cases: chain copies: 2
Mos-1 transposase FQ = target: T1, Mos-1 transposase FQ (Drosophila mauritiana, UniProt Q7JQ07 SEQ:1-345, F53Y,Q91R)
T1 sequence: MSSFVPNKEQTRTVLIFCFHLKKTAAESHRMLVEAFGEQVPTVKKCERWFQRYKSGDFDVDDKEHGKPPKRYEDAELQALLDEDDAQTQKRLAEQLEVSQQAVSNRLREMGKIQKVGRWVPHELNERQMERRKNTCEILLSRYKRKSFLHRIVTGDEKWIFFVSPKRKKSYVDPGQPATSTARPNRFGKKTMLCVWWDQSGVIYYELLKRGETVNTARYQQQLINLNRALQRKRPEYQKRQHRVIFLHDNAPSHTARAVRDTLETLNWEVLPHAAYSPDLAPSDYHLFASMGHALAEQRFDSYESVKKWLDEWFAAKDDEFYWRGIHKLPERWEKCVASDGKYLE
Procedure: (§1) Escherichia coli JM109 bacteria were co-transformed with the pBC 3T3 plasmid (comprising a transposition reporter 2 ITR 3′ mariner-like element and the chloramphenicol resistance gene) and with the inducible vector encoding for the transposase (pKK-Tnp or pMal-Tnp) comprising the ampicillin resistance gene. The bacteria selection was performed on ampicillin (100 μg/ml) and chloramphenicol in order to verify the presence of the two plasmids.
(§2) The JM109 bacteria containing both the pBC 3T3 plasmid and the pKK-Tnp (or pMalC2X-Tnp) plasmid were placed in culture for 1 hr at 37° C. in 250 μl of LB. This inoculum was then poured into 5 ml of LB supplemented with 1 mM IPTG. The culture was titrated on LB plates (100 μl of a 1/1000 dilution) and on LB-Tet plates (12.5 μg/ml) (250 μl of the non-diluted culture). The culture induced by IPTG was then cultured for 5 hours at 32° C. (optimal temperature of transposase) under stirring (250 rpm). The bacterial suspension was then titrated on LB plates (100 μl of a 1/250,000 dilution) and on LB-tet plates (100 μl of the undiluted bacterial suspension). The plates were placed at 37° C. overnight. The following day, the colonies were counted on LB and LB-Tet plates, and the transposition frequency (equal to the number of tetracycline bacteria over the number of bacterial per 1 ml of undiluted bacterial suspension) was calculated.
(§3) In order to evaluate the transposition efficiency of systems associating a hyperactive transposase and a pseudo-transposon that is also hyperactive, various combinations were tested in the transposition test in bacteria described in part I, paragraph I-B above.

Mos-1 transposase FTY = target: T2, Mos-1 transposase FTY (Drosophila mauritiana, UniProt Q7JQ07 SEQ:1-345, F53Y,T216A,Y237C)
T2 sequence: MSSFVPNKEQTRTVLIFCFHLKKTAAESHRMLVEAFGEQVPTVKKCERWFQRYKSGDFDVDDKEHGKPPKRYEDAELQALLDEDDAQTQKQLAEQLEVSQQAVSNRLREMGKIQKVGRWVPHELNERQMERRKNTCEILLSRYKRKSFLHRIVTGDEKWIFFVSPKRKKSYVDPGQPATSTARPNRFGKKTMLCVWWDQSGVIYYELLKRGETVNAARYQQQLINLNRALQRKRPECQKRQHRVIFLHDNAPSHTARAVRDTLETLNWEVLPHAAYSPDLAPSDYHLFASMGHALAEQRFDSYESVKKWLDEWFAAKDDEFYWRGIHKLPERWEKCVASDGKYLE
Procedure: as §1, §2, §3

Mos-1 transposase ET = target: T3, Mos-1 transposase ET (Drosophila mauritiana, UniProt Q7JQ07 SEQ:1-345, E137K,T216A)
T3 sequence: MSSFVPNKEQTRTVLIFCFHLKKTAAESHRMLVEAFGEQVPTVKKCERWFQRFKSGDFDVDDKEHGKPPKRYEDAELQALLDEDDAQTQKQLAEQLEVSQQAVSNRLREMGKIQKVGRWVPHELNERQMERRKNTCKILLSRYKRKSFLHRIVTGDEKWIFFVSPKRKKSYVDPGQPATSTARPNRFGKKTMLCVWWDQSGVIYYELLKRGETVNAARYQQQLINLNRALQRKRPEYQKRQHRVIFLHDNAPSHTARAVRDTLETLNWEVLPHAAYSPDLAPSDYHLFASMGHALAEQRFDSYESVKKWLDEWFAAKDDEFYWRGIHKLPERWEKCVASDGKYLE
Procedure: as §1, §2, §3

Mos-1 transposase TY = target: T4, Mos-1 transposase TY (Drosophila mauritiana, UniProt Q7JQ07 SEQ:1-345, T216A,Y237C)
T4 sequence: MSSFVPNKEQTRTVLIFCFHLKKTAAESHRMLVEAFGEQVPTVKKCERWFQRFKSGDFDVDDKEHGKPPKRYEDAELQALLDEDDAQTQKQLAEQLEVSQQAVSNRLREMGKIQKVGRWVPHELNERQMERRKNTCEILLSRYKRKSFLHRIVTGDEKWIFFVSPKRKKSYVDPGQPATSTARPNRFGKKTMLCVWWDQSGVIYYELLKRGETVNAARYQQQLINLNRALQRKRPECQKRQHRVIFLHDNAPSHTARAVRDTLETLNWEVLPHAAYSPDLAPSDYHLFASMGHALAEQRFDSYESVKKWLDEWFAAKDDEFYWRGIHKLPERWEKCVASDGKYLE
Procedure: as §1, §2, §3

Mos-1 transposase FQET = target: T5, Mos-1 transposase FQET (Drosophila mauritiana, UniProt Q7JQ07 SEQ:1-345, F53Y,Q91R,E137K,T216A)
T5 sequence: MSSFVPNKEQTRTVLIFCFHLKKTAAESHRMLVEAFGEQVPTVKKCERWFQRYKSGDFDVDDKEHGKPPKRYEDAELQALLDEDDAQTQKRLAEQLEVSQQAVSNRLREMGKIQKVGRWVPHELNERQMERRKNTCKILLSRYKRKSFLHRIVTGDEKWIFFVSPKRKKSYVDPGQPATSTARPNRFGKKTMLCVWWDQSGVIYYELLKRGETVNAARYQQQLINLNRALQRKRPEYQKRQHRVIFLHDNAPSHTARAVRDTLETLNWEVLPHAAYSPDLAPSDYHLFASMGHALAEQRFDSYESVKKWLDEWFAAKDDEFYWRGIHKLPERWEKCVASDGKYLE
Procedure: as §1, §2, §3

B1: ITR40 (dsDNA)
DNA 1: TCAGGTGTACAAGTATGTAATGTCGTTA
DNA 2: TAACGACATTACATACTTGTACACCTGA
Question: B1 was tested. Which activity (Mos-1 transposase FQ) did it give?
Answer: 2.5 fold

Question: And the activity (Mos-1 transposase FTY)?
Answer: 2.4 fold

Question: What about the activity (Mos-1 transposase ET) of the same binder?
Answer: 8.9 fold

Question: And the activity (Mos-1 transposase TY)?
Answer: 36.2 fold

Question: What about the activity (Mos-1 transposase FQET) of the same binder?
Answer: 3.7 fold
